These results are taken from patent US20090162360A1 (Hoffmann-La Roche, published 2009).

Experiment [1] deals with T1, recombinant human IGF-1R on I24 cells (human, UniProt P08069 31-1367).
T1 construct: whole, on cells; also called IGF-1R in I24 cells; I24 IGF-1R expressing cells (NIH3T3 cells expressing recombinant human IGF-1R)
As to the kind of experiment: cellular FACS IGF-1R-ANGPT2 bridging assay on I24 cells with 2 µg/mL hANGPT2, detection <ANGPT2>mIgG1-Biotin + Streptavidin-PE. The method, then:
(§1) The assay principle is depicted in FIG. 10.
(§2) Briefly, 5×10E5 I24 cells per FACS tube were incubated with total purified antibody mix and incubated on ice for 1 h (titration 160 μg/ml mix). The respective purified antibodies wildtype <IGF-1R> and <ANGPT2> were applied to the I24 cells as controls. Unbound antibody was washed away with 4 ml ice cold PBS (Gibco)+2% FCS (Gibco), cells were centrifuged (5 min at 400 g) and bound bispecific antibody was detected with 50 μl 2 μg/mL human ANGPT2 (R&D Systems) for 1 h on ice. Subsequently, unbound ANGPT2 was washed away once or twice with 4 ml ice cold PBS (Gibco)+2% FCS (Gibco), cells were centrifuged (5 min at 400 g) and bound ANGPT2 was detected with 50 μl 5 μg/mL <ANGPT2>mIgG1-Biotin antibody (BAM0981, R&D Systems) for 45 min on ice; alternatively, cells were incubated with 50 μl 5 μg/mL mIgG1-Biotin-Isotype control (R&D Systems). Unbound detection antibody was washed away with 4 ml ice cold PBS (Gibco)+2% FCS (Gibco), cells were centrifuged (5 min at 400 g) and bound detection antibody was detected with 50 μl 1:400 Streptavidin-PE conjugate (Invitrogen/Zymed) for 45 min on ice protected from light. Unbound Streptavidin-PE conjugate was washed away with 4 ml ice cold PBS+2% FCS. […]

The target in experiment [2] is T2, human ANGPT2 (R&D Systems) (human, UniProt O15123 19-496, limits assumed).
T2 construct: also called hANGPT2; Ang-2
T2 sequence (looked up): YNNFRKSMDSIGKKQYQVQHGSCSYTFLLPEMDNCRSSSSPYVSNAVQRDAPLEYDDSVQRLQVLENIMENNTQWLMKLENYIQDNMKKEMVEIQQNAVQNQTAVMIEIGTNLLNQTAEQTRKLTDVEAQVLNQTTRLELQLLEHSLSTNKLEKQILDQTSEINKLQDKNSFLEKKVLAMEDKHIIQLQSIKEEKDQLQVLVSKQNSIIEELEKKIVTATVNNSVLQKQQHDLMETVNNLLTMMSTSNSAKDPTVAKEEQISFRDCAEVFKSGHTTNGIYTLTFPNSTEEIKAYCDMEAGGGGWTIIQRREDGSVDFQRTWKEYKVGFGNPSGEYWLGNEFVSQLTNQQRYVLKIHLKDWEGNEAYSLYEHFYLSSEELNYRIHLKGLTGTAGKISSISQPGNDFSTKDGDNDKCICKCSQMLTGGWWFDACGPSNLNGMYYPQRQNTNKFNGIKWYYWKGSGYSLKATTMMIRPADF
Described as above. The procedure:
as §1, §2

B1: monospecific, bivalent <ANGPT2> wildtype antibody (antibody, V domains shown)
VH: EVQLVQSGGGVVQPGRSLRLSCAASGFTFSSYGMHWVRQAPGKGLEWVSYISSSGSTIYYADSVKGRFTISRDNAKNSLYLQMNSLRAEDTAVYYCARDLLDYDILTGYGYWGQGTLVTVSS
VL: not shown
notes: Human IgG1/kappa antibody described in WO 2006/045049; also called wildtype <ANGPT2> antibody; <Ang-2> control antibody
Turning to B1, the binding result in experiment [1] is “no binding”.

B2: wildtype <IGF-1R> antibody (antibody, V domains shown)
VH: QVELVESGGGVVQPGRSQRLSCAASGFTFSSYGMHWVRQAPGKGLEWVAIIWFDGSSTYYADSVRGRFTISRDNSKNTLYLQMNSLRAEDTAVYFCARELGRRYFDLWGRGTLVSVSS
VL: EIVLTQSPATLSLSPGERATLSCRASQSVSSYLAWYQQKPGQAPRLLIYDASKRATGIPARFSGSGSGTDFTLTISSLEPEDFAVYYCQQRSKWPPWTFGQGTKVESKR
notes: Human IgG1/kappa antibody described in WO 2005/005635; also called <IGF-1R> wildtype antibody; original wildtype <IGF-1R> antibody
Turning to B2, the binding result in experiment [2] was “no binding”.
